Data published in patent US5786169.

Key:
Assay in all cases: yeast interaction trap (two-hybrid), LexAop-lacZ reporter pJK103 in EGY48, galactose medium
[1] = target: LexA-Cdc2c (Dm) bait protein (Drosophila) (UniProt P23573)
[2] = target: LexA-Cdc2 (Dm) bait protein (Drosophila) (UniProt P23572)
[3] = target: LexA-Cdc28 (Sc) bait protein (S. cerevisiae) (UniProt P00546)
[4] = target: LexA-Fus3 (Sc) bait protein (S. cerevisiae) (UniProt P16892)
[5] = target: LexA-Cdk2 (Hs) bait protein (human) (UniProt P24941)
[6] = target: LexA-Cdc2 (Hs) bait protein (human) (UniProt P06493)

Q: “tagged Cdi1 (activation-tagged prey fusion expressed from library plasmid pJG4-5)” was tested. Which β-Galactosidase Activity (β-galactosidase units) [1] did it give?
A: > 2

Q: What about the β-Galactosidase Activity (β-galactosidase units) [2] of the same substance?
A: 40

Q: What about the β-Galactosidase Activity (β-galactosidase units) [3] of the same substance?
A: 480

Q: And the β-Galactosidase Activity (β-galactosidase units) [4]?
A: > 2

Q: And the β-Galactosidase Activity (β-galactosidase units) [5]?
A: 440

Q: And the β-Galactosidase Activity (β-galactosidase units) [6]?
A: 1580
